Assays:
[1] = target: putative phosphatase 17 (PP17), a histidine family phosphatase (HFP), Aquifex aeolicus (Aquifex aeolicus); assay: SEC; preparative gel filtration, 120 ml HiLoad 16/600 Superdex 75 prep grade column, 50 mM Hepes pH 8.0, 150 mM NaCl, 20% glycerol
[2] = target: the molecule itself; assay: SEC; 120 ml HiLoad 16/600 Superdex 75 prep grade column, 50 mM Hepes pH 8.0, 150 mM NaCl, 20% glycerol; molecular weight from a standard curve of commercial standard proteins (65 kDa)

| stoichiometry N [1] | Molecule | stoichiometry N [2] |
| --- | --- | --- |
| 2 | putative phosphatase 17 (PP17), a histidine family phosphatase (HFP), Aquifex aeolicus (enzyme) | – |
| – | putative phosphatase 11 (PP11), annotated as a myo-inositol-1(or 4)-monophosphatase (IMP), Aquifex aeolicus (enzyme, Aquifex aeolicus putative phosphatase 11, annotated as myo-inositol-1(or 4)-monophosphatase; codon optimised, in pET20b with a stop codon before the C-terminal histidine tag so that the protein is expressed in the native form; Untagged; Two magnesium ions and a phosphate in the active site of the structure; source: E. coli BL21 (DE3), purified (heat 70 °C, gel filtration)) MENLKKYLEVAKIAALAGGQVLKENFGKVKKENIEEKGEKDFVSYVDKTSEERIKEVILKFFPDHEVVGEEMGAEGSGSEYRWFIDPLDGTKNYINGFPIFAVSVGLVKGEEPIVGAVYLPYFDKLYWGAKGLGAYVNGKRIKVKDNESLKHAGVVYGFPSRSRRDISIYLNIFKDVFYEVGSMRRPGAAAVDLCMVAEGIFDGMMEFEMKPWDITAGLVILKEAGGVYTLVGEPFGVSDIIAGNKALHDFILQVAKKYMEVAV | 2 |
